Measured values as given in US20050234225A1.

Assays:
[1] = target: KDR-alkaline phosphatase (AP) soluble fusion protein (human) (UniProt P35968); test: competitive blocking ELISA: antibody pre-incubated with KDR-AP, then binding of KDR-AP to immobilised VEGF165, A405
cell-surface KDR (human) = cell-surface KDR (human) (UniProt P35968); test: cell-based or functional assay
[2] = target: KDR-alkaline phosphatase (AP) soluble fusion protein (human) (UniProt P35968); test: BIAcore SPR, KDR immobilized

Chain of KDR-alkaline phosphatase (AP) soluble fusion protein (human) (P35968 20-764): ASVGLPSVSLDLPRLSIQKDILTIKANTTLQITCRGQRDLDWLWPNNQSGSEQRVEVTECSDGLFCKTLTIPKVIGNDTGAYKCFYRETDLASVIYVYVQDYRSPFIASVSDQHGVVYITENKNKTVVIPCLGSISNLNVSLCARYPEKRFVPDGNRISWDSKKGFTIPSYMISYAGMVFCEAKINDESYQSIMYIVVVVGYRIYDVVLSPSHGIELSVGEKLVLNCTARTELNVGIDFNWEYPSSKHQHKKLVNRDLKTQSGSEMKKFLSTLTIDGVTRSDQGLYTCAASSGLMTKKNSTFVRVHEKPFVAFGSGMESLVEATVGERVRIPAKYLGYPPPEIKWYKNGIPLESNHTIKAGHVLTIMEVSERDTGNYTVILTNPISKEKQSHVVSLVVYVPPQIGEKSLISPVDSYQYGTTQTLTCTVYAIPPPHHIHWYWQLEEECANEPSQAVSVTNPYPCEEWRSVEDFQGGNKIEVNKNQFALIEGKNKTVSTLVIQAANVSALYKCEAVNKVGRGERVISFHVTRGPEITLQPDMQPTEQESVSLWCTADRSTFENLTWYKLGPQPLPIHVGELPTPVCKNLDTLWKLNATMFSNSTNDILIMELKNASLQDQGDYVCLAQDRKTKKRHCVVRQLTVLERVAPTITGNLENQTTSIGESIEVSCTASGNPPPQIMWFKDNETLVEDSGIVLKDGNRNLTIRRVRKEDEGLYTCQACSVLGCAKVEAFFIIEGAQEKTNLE
Chain of cell-surface KDR (human) (P35968 20-1356): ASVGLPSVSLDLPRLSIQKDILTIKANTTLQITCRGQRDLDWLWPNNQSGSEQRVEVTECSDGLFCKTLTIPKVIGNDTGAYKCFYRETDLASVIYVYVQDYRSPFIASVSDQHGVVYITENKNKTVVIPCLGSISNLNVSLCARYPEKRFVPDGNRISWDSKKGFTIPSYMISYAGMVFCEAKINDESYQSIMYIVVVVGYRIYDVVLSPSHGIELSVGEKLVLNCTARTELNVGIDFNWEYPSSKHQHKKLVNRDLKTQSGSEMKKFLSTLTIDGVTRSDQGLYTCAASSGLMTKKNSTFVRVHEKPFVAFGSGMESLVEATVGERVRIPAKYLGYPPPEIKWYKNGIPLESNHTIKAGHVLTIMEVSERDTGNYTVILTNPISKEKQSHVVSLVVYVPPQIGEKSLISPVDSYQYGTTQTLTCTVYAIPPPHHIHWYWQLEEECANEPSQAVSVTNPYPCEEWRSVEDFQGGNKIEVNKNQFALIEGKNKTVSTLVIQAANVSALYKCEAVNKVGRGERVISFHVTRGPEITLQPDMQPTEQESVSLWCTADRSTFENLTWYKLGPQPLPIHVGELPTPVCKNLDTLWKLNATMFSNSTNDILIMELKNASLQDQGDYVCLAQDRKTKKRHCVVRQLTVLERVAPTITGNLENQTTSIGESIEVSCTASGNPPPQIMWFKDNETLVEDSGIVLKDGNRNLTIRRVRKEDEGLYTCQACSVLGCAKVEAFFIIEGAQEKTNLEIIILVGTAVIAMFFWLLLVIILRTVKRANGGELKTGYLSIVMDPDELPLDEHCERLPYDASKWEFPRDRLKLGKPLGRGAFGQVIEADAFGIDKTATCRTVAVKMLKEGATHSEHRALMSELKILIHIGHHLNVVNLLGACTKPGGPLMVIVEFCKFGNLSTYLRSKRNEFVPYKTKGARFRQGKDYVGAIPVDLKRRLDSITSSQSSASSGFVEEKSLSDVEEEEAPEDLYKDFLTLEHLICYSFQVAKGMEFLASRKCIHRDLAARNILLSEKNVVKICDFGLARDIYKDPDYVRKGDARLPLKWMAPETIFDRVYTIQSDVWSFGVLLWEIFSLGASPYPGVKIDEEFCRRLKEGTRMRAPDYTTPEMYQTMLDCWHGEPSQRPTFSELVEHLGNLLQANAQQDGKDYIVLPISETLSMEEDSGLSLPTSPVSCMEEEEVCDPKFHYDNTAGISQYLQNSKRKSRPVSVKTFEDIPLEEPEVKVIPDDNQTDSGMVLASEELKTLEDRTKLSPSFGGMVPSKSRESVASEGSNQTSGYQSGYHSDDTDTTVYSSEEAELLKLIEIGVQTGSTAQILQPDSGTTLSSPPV

IC50 (read off the curve) [1]: 1 nM | ED50 of inhibition of VEGF-stimulated [3H]-TdR incorporation in HUVEC (cell-surface KDR (human)): 1.5 nM | Kd [2]: 0.27 nM | fold change of Kd against its Fab counterpart [2]: 5 fold | koff [2]: 3.7e-05 s⁻¹ | kon [2]: 134000 M⁻¹ s⁻¹
Substance: IMC-1C11 (antibody)
